Laboratory results reported in US20180155451A1 (published 2018).

T1: FcγRIIa R (FcγRIIa, allotype R: Arg at position 131) extracellular domain with C-terminal His tag (human, UniProt P12318 34-217)
T1 construct: extracellular domain; also called FcgRIIa R; 2aR; not shown: His tag at the C terminus
T1 sequence (looked up): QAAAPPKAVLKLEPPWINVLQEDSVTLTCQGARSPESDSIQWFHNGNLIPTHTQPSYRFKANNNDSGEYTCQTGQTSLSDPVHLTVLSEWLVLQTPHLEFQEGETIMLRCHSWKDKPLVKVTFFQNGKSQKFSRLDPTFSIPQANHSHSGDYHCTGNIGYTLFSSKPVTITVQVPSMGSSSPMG

T2: FcγRIIb extracellular domain with C-terminal His tag (human, UniProt P31994 43-217)
T2 construct: extracellular domain; also called FcgRIIb; 2b; not shown: His tag at the C terminus
T2 sequence (looked up): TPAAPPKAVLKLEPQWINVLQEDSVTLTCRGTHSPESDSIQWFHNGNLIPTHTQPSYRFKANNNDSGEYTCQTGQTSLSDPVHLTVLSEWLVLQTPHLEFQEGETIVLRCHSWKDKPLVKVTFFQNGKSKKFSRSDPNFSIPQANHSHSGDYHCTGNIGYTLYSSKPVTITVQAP


Columns and labels:
[1] = target: T1, FcγRIIa R (FcγRIIa, allotype R: Arg at …); assay: SPR Biacore, antibody captured, FcgR analyte; vs HeCon Ab GpH7-A5/GpH7-B3/GpL16-k0 = 100
Procedure: (§1) The heterodimerized antibodies He Abs in which one of the H chains was introduced with an alteration were assayed for their binding activities to each activating FcγR and inhibitory FcγR according to the method described in Example 4. […] The activating FcγRs in FIGS. 26, 27, 28, and 29 are FcγRIa, FcγRIIa (R), FcγRIIa (H), and FcγRIIIa, respectively.
(§2) Analysis of interaction between objective antibody and the FcγR was carried out using Biacore T100 (GE Healthcare). HBS-EP+ (GE Healthcare) was used as the running buffer, and the measurement temperature was set to 25° C. Chips produced by immobilizing the antigen peptide by the amine coupling method to a Series S Sencor Chip CM5 (GE Healthcare), or alternatively, chips produced by allowing preliminarily biotinylated antigen peptides to interact with and immobilize onto a Series S Sensor Chip SA (certified) (GE Healthcare) were used. Antibodies of interest were captured onto an antigen peptide-immobilized chip, and allowed to interact to each FcγR diluted with running buffer. To regenerate and repeatedly use the chip, the antibodies captured on the chip were washed off by reacting 10 mM glycine-HCl, pH 1.5.

[2] = target: T2, FcγRIIb extracellular domain with …; assay: as above
Procedure: as §1, §2

Row | Binder | He/Con_2aR [1] | He/Con_2b [2]
1 | GpH7-A5/GpH7-B3 variant P331_18N/GpL16-k0 (antibody, human IgG1, kappa, He Ab: alteration in the GpH7-B3 H chain only; also called He Ab) heavy 1: not shown heavy 2: not shown light: DIVMTQSPLSLPVTPGEPASISCQASESLVHSNRNTYLHWYLQKPGQSPQLLIYKVSNRFSGVPDRFSGSGSGTDFTLKISRVEAEDVGVYYCSQNTHVPPTFGQGTKVEIERTVAAPSVFIFPPSDEQLKSGTASVVCLLNNFYPREAKVQWKVDNALQSGNSQESVTEQDSKDSTYSLSSTLTLSKADYEKHKVYACEVTHQGLSSPVTKSFNRGEC | 105 control = 100 | 99.2 control = 100
2 | GpH7-A5/GpH7-B3 variant Y296_07I/GpL16-k0 (antibody, human IgG1, kappa, He Ab: alteration in the GpH7-B3 H chain only; also called He Ab) heavy 1: not shown heavy 2: not shown light: DIVMTQSPLSLPVTPGEPASISCQASESLVHSNRNTYLHWYLQKPGQSPQLLIYKVSNRFSGVPDRFSGSGSGTDFTLKISRVEAEDVGVYYCSQNTHVPPTFGQGTKVEIERTVAAPSVFIFPPSDEQLKSGTASVVCLLNNFYPREAKVQWKVDNALQSGNSQESVTEQDSKDSTYSLSSTLTLSKADYEKHKVYACEVTHQGLSSPVTKSFNRGEC | 101 control = 100 | 84.3 control = 100
3 | GpH7-A5/GpH7-B3 variant Y296_04F/GpL16-k0 (antibody, human IgG1, kappa, He Ab: alteration in the GpH7-B3 H chain only; also called He Ab) heavy 1: not shown heavy 2: not shown light: DIVMTQSPLSLPVTPGEPASISCQASESLVHSNRNTYLHWYLQKPGQSPQLLIYKVSNRFSGVPDRFSGSGSGTDFTLKISRVEAEDVGVYYCSQNTHVPPTFGQGTKVEIERTVAAPSVFIFPPSDEQLKSGTASVVCLLNNFYPREAKVQWKVDNALQSGNSQESVTEQDSKDSTYSLSSTLTLSKADYEKHKVYACEVTHQGLSSPVTKSFNRGEC | 109 control = 100 | 99.2 control = 100
4 | GpH7-A5/GpH7-B3 variant Y296_10E/GpL16-k0 (antibody, human IgG1, kappa, He Ab: alteration in the GpH7-B3 H chain only; also called He Ab) heavy 1: not shown heavy 2: not shown light: DIVMTQSPLSLPVTPGEPASISCQASESLVHSNRNTYLHWYLQKPGQSPQLLIYKVSNRFSGVPDRFSGSGSGTDFTLKISRVEAEDVGVYYCSQNTHVPPTFGQGTKVEIERTVAAPSVFIFPPSDEQLKSGTASVVCLLNNFYPREAKVQWKVDNALQSGNSQESVTEQDSKDSTYSLSSTLTLSKADYEKHKVYACEVTHQGLSSPVTKSFNRGEC | 103 control = 100 | 98 control = 100
5 | GpH7-A5/GpH7-B3 variant Y296_09D/GpL16-k0 (antibody, human IgG1, kappa, He Ab: alteration in the GpH7-B3 H chain only; also called He Ab) heavy 1: not shown heavy 2: not shown light: DIVMTQSPLSLPVTPGEPASISCQASESLVHSNRNTYLHWYLQKPGQSPQLLIYKVSNRFSGVPDRFSGSGSGTDFTLKISRVEAEDVGVYYCSQNTHVPPTFGQGTKVEIERTVAAPSVFIFPPSDEQLKSGTASVVCLLNNFYPREAKVQWKVDNALQSGNSQESVTEQDSKDSTYSLSSTLTLSKADYEKHKVYACEVTHQGLSSPVTKSFNRGEC | 106 control = 100 | 98.9 control = 100
6 | GpH7-A5/GpH7-B3 variant Q295_10E/GpL16-k0 (antibody, human IgG1, kappa, He Ab: alteration in the GpH7-B3 H chain only; also called He Ab) heavy 1: not shown heavy 2: not shown light: DIVMTQSPLSLPVTPGEPASISCQASESLVHSNRNTYLHWYLQKPGQSPQLLIYKVSNRFSGVPDRFSGSGSGTDFTLKISRVEAEDVGVYYCSQNTHVPPTFGQGTKVEIERTVAAPSVFIFPPSDEQLKSGTASVVCLLNNFYPREAKVQWKVDNALQSGNSQESVTEQDSKDSTYSLSSTLTLSKADYEKHKVYACEVTHQGLSSPVTKSFNRGEC | 102 control = 100 | 94.8 control = 100
7 | GpH7-A5/GpH7-B3 variant Y296_06M/GpL16-k0 (antibody, human IgG1, kappa, He Ab: alteration in the GpH7-B3 H chain only; also called He Ab) heavy 1: not shown heavy 2: not shown light: DIVMTQSPLSLPVTPGEPASISCQASESLVHSNRNTYLHWYLQKPGQSPQLLIYKVSNRFSGVPDRFSGSGSGTDFTLKISRVEAEDVGVYYCSQNTHVPPTFGQGTKVEIERTVAAPSVFIFPPSDEQLKSGTASVVCLLNNFYPREAKVQWKVDNALQSGNSQESVTEQDSKDSTYSLSSTLTLSKADYEKHKVYACEVTHQGLSSPVTKSFNRGEC | 101 control = 100 | 87.8 control = 100
8 | GpH7-A5/GpH7-B3 variant S239_14T/GpL16-k0 (antibody, human IgG1, kappa, He Ab: alteration in the GpH7-B3 H chain only; also called He Ab) heavy 1: not shown heavy 2: not shown light: DIVMTQSPLSLPVTPGEPASISCQASESLVHSNRNTYLHWYLQKPGQSPQLLIYKVSNRFSGVPDRFSGSGSGTDFTLKISRVEAEDVGVYYCSQNTHVPPTFGQGTKVEIERTVAAPSVFIFPPSDEQLKSGTASVVCLLNNFYPREAKVQWKVDNALQSGNSQESVTEQDSKDSTYSLSSTLTLSKADYEKHKVYACEVTHQGLSSPVTKSFNRGEC | 103 control = 100 | 97.3 control = 100
9 | GpH7-A5/GpH7-B3 variant Q295_06M/GpL16-k0 (antibody, human IgG1, kappa, He Ab: alteration in the GpH7-B3 H chain only; also called He Ab) heavy 1: not shown heavy 2: not shown light: DIVMTQSPLSLPVTPGEPASISCQASESLVHSNRNTYLHWYLQKPGQSPQLLIYKVSNRFSGVPDRFSGSGSGTDFTLKISRVEAEDVGVYYCSQNTHVPPTFGQGTKVEIERTVAAPSVFIFPPSDEQLKSGTASVVCLLNNFYPREAKVQWKVDNALQSGNSQESVTEQDSKDSTYSLSSTLTLSKADYEKHKVYACEVTHQGLSSPVTKSFNRGEC | 102 control = 100 | 90.4 control = 100
10 | GpH7-A5/GpH7-B3 variant S324_04F/GpL16-k0 (antibody, human IgG1, kappa, He Ab: alteration in the GpH7-B3 H chain only; also called He Ab) heavy 1: not shown heavy 2: not shown light: DIVMTQSPLSLPVTPGEPASISCQASESLVHSNRNTYLHWYLQKPGQSPQLLIYKVSNRFSGVPDRFSGSGSGTDFTLKISRVEAEDVGVYYCSQNTHVPPTFGQGTKVEIERTVAAPSVFIFPPSDEQLKSGTASVVCLLNNFYPREAKVQWKVDNALQSGNSQESVTEQDSKDSTYSLSSTLTLSKADYEKHKVYACEVTHQGLSSPVTKSFNRGEC | 104 control = 100 | 89.1 control = 100

More lines, now with the values ahead:

Row | He/Con_2aR [1] | He/Con_2b [2] | Binder
11 | 108 control = 100 | 94.8 control = 100 | GpH7-A5/GpH7-B3 variant Y300_04F/GpL16-k0 (antibody, human IgG1, kappa, He Ab: alteration in the GpH7-B3 H chain only; also called He Ab) heavy 1: not shown heavy 2: not shown light: DIVMTQSPLSLPVTPGEPASISCQASESLVHSNRNTYLHWYLQKPGQSPQLLIYKVSNRFSGVPDRFSGSGSGTDFTLKISRVEAEDVGVYYCSQNTHVPPTFGQGTKVEIERTVAAPSVFIFPPSDEQLKSGTASVVCLLNNFYPREAKVQWKVDNALQSGNSQESVTEQDSKDSTYSLSSTLTLSKADYEKHKVYACEVTHQGLSSPVTKSFNRGEC
12 | 104 control = 100 | 91.5 control = 100 | GpH7-A5/GpH7-B3 variant Y296_18N/GpL16-k0 (antibody, human IgG1, kappa, He Ab: alteration in the GpH7-B3 H chain only; also called He Ab) heavy 1: not shown heavy 2: not shown light: DIVMTQSPLSLPVTPGEPASISCQASESLVHSNRNTYLHWYLQKPGQSPQLLIYKVSNRFSGVPDRFSGSGSGTDFTLKISRVEAEDVGVYYCSQNTHVPPTFGQGTKVEIERTVAAPSVFIFPPSDEQLKSGTASVVCLLNNFYPREAKVQWKVDNALQSGNSQESVTEQDSKDSTYSLSSTLTLSKADYEKHKVYACEVTHQGLSSPVTKSFNRGEC
13 | 103 control = 100 | 88.2 control = 100 | GpH7-A5/GpH7-B3 variant Y296_14T/GpL16-k0 (antibody, human IgG1, kappa, He Ab: alteration in the GpH7-B3 H chain only; also called He Ab) heavy 1: not shown heavy 2: not shown light: DIVMTQSPLSLPVTPGEPASISCQASESLVHSNRNTYLHWYLQKPGQSPQLLIYKVSNRFSGVPDRFSGSGSGTDFTLKISRVEAEDVGVYYCSQNTHVPPTFGQGTKVEIERTVAAPSVFIFPPSDEQLKSGTASVVCLLNNFYPREAKVQWKVDNALQSGNSQESVTEQDSKDSTYSLSSTLTLSKADYEKHKVYACEVTHQGLSSPVTKSFNRGEC
14 | 102 control = 100 | 86.3 control = 100 | GpH7-A5/GpH7-B3 variant Y296_13S/GpL16-k0 (antibody, human IgG1, kappa, He Ab: alteration in the GpH7-B3 H chain only; also called He Ab) heavy 1: not shown heavy 2: not shown light: DIVMTQSPLSLPVTPGEPASISCQASESLVHSNRNTYLHWYLQKPGQSPQLLIYKVSNRFSGVPDRFSGSGSGTDFTLKISRVEAEDVGVYYCSQNTHVPPTFGQGTKVEIERTVAAPSVFIFPPSDEQLKSGTASVVCLLNNFYPREAKVQWKVDNALQSGNSQESVTEQDSKDSTYSLSSTLTLSKADYEKHKVYACEVTHQGLSSPVTKSFNRGEC
15 | 105 control = 100 | 92.2 control = 100 | GpH7-A5/GpH7-B3 variant Y296_16H/GpL16-k0 (antibody, human IgG1, kappa, He Ab: alteration in the GpH7-B3 H chain only; also called He Ab) heavy 1: not shown heavy 2: not shown light: DIVMTQSPLSLPVTPGEPASISCQASESLVHSNRNTYLHWYLQKPGQSPQLLIYKVSNRFSGVPDRFSGSGSGTDFTLKISRVEAEDVGVYYCSQNTHVPPTFGQGTKVEIERTVAAPSVFIFPPSDEQLKSGTASVVCLLNNFYPREAKVQWKVDNALQSGNSQESVTEQDSKDSTYSLSSTLTLSKADYEKHKVYACEVTHQGLSSPVTKSFNRGEC
16 | 100 control = 100 | 82.7 control = 100 | GpH7-A5/GpH7-B3 variant Y300_18N/GpL16-k0 (antibody, human IgG1, kappa, He Ab: alteration in the GpH7-B3 H chain only; also called He Ab) heavy 1: not shown heavy 2: not shown light: DIVMTQSPLSLPVTPGEPASISCQASESLVHSNRNTYLHWYLQKPGQSPQLLIYKVSNRFSGVPDRFSGSGSGTDFTLKISRVEAEDVGVYYCSQNTHVPPTFGQGTKVEIERTVAAPSVFIFPPSDEQLKSGTASVVCLLNNFYPREAKVQWKVDNALQSGNSQESVTEQDSKDSTYSLSSTLTLSKADYEKHKVYACEVTHQGLSSPVTKSFNRGEC
17 | 102 control = 100 | 89.3 control = 100 | GpH7-A5/GpH7-B3 variant Y296_19Q/GpL16-k0 (antibody, human IgG1, kappa, He Ab: alteration in the GpH7-B3 H chain only; also called He Ab) heavy 1: not shown heavy 2: not shown light: DIVMTQSPLSLPVTPGEPASISCQASESLVHSNRNTYLHWYLQKPGQSPQLLIYKVSNRFSGVPDRFSGSGSGTDFTLKISRVEAEDVGVYYCSQNTHVPPTFGQGTKVEIERTVAAPSVFIFPPSDEQLKSGTASVVCLLNNFYPREAKVQWKVDNALQSGNSQESVTEQDSKDSTYSLSSTLTLSKADYEKHKVYACEVTHQGLSSPVTKSFNRGEC
